For data set [1], the system named is SalI restriction endonuclease. In words: cleavage_in_vitro. As to conditions: 125 mM NaCl.
The subject of data set [2] is SWI/SNF complex (Saccharomyces cerevisiae). The data set is described as follows: cleavage_in_vitro. As to conditions: kcat of nucleosome remodeling, SalI-coupled; 1 mM ATP, 125 mM NaCl, 2.5 mM MgCl2; no stimulation without ATP or with ATPgS.

As to 11-mer 5S SalI array template (pCL7c), in data set [1] (naked DNA, 2.5 mM MgCl2, 37 C, +/-0.03e-4), the activity came out at 0.000286 U^-1 min^-1.

For the substance “11-mer 5S SalI nucleosome array (pCL7c template with histone octamers)”, the activity is 0.22 min⁻¹ in data set [2] and 9.19e-07 U^-1 min^-1 in data set [1] (second slow phase, nucleosomal DNA, Kconf 3.2e-3, 2.5 mM MgCl2).

The values above are taken from patent US5972608.
